Biological target: T1, mouse IFNα4 without tag (Mus musculus, UniProt P07351)
T1 construct: Expressed with an N-terminal mouse IgG signal peptide (HVM06_MOUSE) and a C-terminal TEV site before the tags; Produced in a glycosylation deficient cell line; also called Interferon α; not shown: Twin-Strep-tag, C-terminal, cleaved; His8, C-terminal, cleaved
Assay: BLI; Octet Red96; αIFNα-ab covalently coupled (EDC/NHS) to Ni-NTA tips, increasing concentrations of IFNα4 in solution; kinetic buffer 0.2% BSA in PBS with 0.05% Tween 20; association 800 s, dissociation 1800 s; 1:1 interaction model
Settings: both partners purified

T1 sequence (P07351 25-186): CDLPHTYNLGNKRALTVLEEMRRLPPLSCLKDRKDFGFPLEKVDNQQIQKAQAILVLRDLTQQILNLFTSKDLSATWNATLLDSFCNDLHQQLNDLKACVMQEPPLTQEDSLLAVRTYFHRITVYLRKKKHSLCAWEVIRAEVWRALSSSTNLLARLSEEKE

B1: soluble scFv αIFNα-ab (scFv, V domains shown)
VH: EVQLVESGGGLVRPGGSLKLSCTASGFTFSDFDMAWVRQAPTRGLEWVASISSGPANTHYRGSVRGRFTGSRNDAKSTLYLQMDSLRSEDTATYYCARPFGSGYYFDYWGQGVVVTVSS
VL: DTVLTQSPALAVSLGQRVTISCKASESVSSSTSNYMHWYQQKPGQRPKLLIYLASNLESGVPARFSGSGSGTDFILNIDPVEADDVATYFCQQSWNDPPTFGSGTKVELK
notes: VH of the rat anti-mouse IFNα hybridoma antibody 4EA1; linker, printed as (GGGGS)3; VL (kappa) of the rat anti-mouse IFNα hybridoma antibody 4EA1; Order VH-(GGGGS)3-VL; made with a signal peptide (secreted); also called anti-IFNα scFv; soluble form of the intrabody; not shown: His6, C-terminal, kept
Kd: 38.6 nM
koff: 0.00023 s⁻¹
kon: 5970 M⁻¹ s⁻¹
